Experimental data: IntAct's records for PubMed 22913516

Target: kcc2b_mouse Camk2b (UniProt P28652)
Sequence (P28652 whole entry): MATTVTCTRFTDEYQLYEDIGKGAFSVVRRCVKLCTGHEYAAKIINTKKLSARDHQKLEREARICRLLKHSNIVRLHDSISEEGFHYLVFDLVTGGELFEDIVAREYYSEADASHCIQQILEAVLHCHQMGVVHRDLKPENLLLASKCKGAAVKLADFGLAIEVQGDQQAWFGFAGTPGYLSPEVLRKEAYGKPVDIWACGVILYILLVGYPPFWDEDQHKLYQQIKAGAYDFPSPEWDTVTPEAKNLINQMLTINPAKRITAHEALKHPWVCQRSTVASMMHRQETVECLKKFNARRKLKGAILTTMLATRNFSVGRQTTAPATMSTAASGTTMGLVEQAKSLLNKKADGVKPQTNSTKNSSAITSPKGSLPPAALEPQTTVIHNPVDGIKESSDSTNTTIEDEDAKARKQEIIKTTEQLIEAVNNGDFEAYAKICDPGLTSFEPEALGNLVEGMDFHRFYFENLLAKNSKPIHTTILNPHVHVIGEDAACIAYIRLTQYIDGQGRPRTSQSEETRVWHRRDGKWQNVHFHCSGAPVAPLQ

effect of a mutation on the interaction: decreasing interaction
Substance: Ryanodine receptor 1 (Oryctolagus cuniculus (Rabbit)), P11716 S2843A
